For 72 sequences, protein stability index results are on record in the supplement of paper PMC10567573.

A short description of the series: protein stability index of a GFP-peptide fusion (GPS, HEK-293T) (PSI 1-6); higher = more stable. The conditions noted are these: c terminus: a fixed tail appended.

± gives the standard deviation.
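Further: 24-mer peptide tiles fused after GFP, lentivirally expressed, FACS-sorted into six equal bins by GFP/DsRed ratio, decoded by Illumina sequencing, PSI is the read-weighted mean bin number.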

Take ESIESYDSCDRLTQSWSSQSSFNS [ETS1]: the protein stability index is, setting by setting: (treatment: DMSO) 3.91 ± 0.34; (treatment: MLN4924 1 uM, 8 h) 4.1 ± 0.3.
On the same counts, the results for SVVGTVLAATQAEKAVANFDRTEW [ZC2HC1C] are 3.26 ± 0.21 and 3.26 ± 0.3.
On the same counts, the results for TGEKPHTCSECGKGFIQKGNLNIH [ZNF649] are 3.14 ± 0.25 and 3.54 ± 0.16.
As to NVIDRMKESSPSGSKSQRYSGAYG [CHCHD3], the protein stability index by setting is: (treatment: DMSO) 4.13 ± 0.4; (treatment: MLN4924 1 uM, 8 h) 4.13 ± 0.15.
Turning to LERKCEKRSVYIDARDEELEKDTM [ZC3H15], the protein stability index turned out to be 4.93 ± 0.49 (treatment: DMSO) and 4.9 ± 0.075 (treatment: MLN4924 1 uM, 8 h).
Turning to QKNGGGAYLVPYLVLLIIIGIPLF [SLC6A17], the protein stability index is, setting by setting: (treatment: DMSO) 2.37 ± 0.061; (treatment: MLN4924 1 uM, 8 h) 2.83 ± 1.5.
In the case of RLEDKVKTLKAENAGLSSTAGLLR [JUNB], the protein stability index (treatment: DMSO) stood at 3.7 ± 0.22 and the protein stability index (treatment: MLN4924 1 uM, 8 h) came to 3.97 ± 0.3.
Consider ERGTPGLPGPKGDDGKLGATGPMG [SCARA5], for which the protein stability index is, setting by setting: (treatment: DMSO) 4.92 ± 0.34; (treatment: MLN4924 1 uM, 8 h) 4.95 ± 0.15.
On the same counts, the results for NESMKAYHNSPAYLAYINAKSRAE [SMARCE1] are 4.42 ± 0.27 and 4.26 ± 0.49.
With RVKLISNKGTETDNDPSCVHPIIK [PHTF1], the protein stability index turned out to be 3.58 ± 0.16 (treatment: DMSO) and 3.83 ± 0.35 (treatment: MLN4924 1 uM, 8 h).
On the same counts, the results for SQKEMDKAETKTKKAAESLRRSVE [FCHO1] are 5.24 ± 0.29 and 5.23 ± 0.38.
Turning to DSLGGSQEMVQRPQPHRNRAGLDL [TRAF3IP2], the protein stability index was found to be 4.87 ± 0.23 (treatment: DMSO) and 4.58 ± 0.41 (treatment: MLN4924 1 uM, 8 h).
Taken in the same sequence, the figures for WGRLLEQVGTMALWASQREKEVLR [ZBED2] were 2.18 ± 0.16 and 2.36 ± 0.23.
Turning to KKAFLNQAQIELRLLELMNQHDTE [DYRK1B], the protein stability index runs as follows: (treatment: DMSO) 3.05 ± 0.3; (treatment: MLN4924 1 uM, 8 h) 3.35 ± 0.14.
On the same counts, the results for TIFSASNYYEVGSNRGAYVKLGPA [PPEF2] are 2.39 ± 0.5 and 2.66 ± 0.3.
With EVEWTEDLALDLGPQSRELTLKVL [C2CD2L], the protein stability index worked out at 3.44 ± 0.19 (treatment: DMSO) and 3.6 ± 0.36 (treatment: MLN4924 1 uM, 8 h).
As to GKKVSNQRFEVIEFDDGSGSVLRI [PTPRD], the protein stability index is, setting by setting: (treatment: DMSO) 2.38 ± 0.74; (treatment: MLN4924 1 uM, 8 h) 2.5 ± 0.26.
On the same counts, the results for VRQLERENAELESRIQEWYEFQIP [KRT36] are 3.41 ± 0.16 and 3.43 ± 0.42.
The sequence VTVTDVDIVFSKIKGKSCRTITFE [TPPP] returned a protein stability index (treatment: DMSO) of 2.23 ± 0.24 and a protein stability index (treatment: MLN4924 1 uM, 8 h) of 2.1 ± 0.28.
Sequence AAHAVVLCALPVHVAVEHQLPPAS [SOAT2] came in with a protein stability index (treatment: DMSO) of 2.16 ± 0.32 and a protein stability index (treatment: MLN4924 1 uM, 8 h) of 2.52 ± 0.39.
SPAGELPKTVQQPTESEPVTINIQ [MATN2] yielded a protein stability index (treatment: DMSO) of 5.29 ± 0.31 and a protein stability index (treatment: MLN4924 1 uM, 8 h) of 5.24 ± 0.38.
Taken in the same sequence, the figures for LNWKMTLCLLVAWSIVGMAVVKGI [SLC6A17] were 2.61 ± 0.67 and 2.45 ± 0.48.
Taken in the same sequence, the figures for PGGNVKGVWAPPAPGFGEDVPNRL [BEX5] were 3.95 ± 0.18 and 4.16 ± 0.23.
Taken in the same sequence, the figures for DDMPIGRNVLELNDVRQSANYTCV [PTPRD] were 3.72 ± 0.28 and 3.77 ± 0.44.
In the case of FATQTEELNKQVVSSSEQLQSYQA [KRT33B], the protein stability index reads like this: (treatment: DMSO) 4.75 ± 0.24; (treatment: MLN4924 1 uM, 8 h) 4.64 ± 0.17.
PFGFQTVTSDVNKLSSFYSLKLIK [SERPINB5]: the protein stability index reads like this: (treatment: DMSO) 2.15 ± 0.17; (treatment: MLN4924 1 uM, 8 h) 2.31 ± 0.41.
Taken in the same sequence, the figures for QVPSGEDQTALSLEECLRLLEATC [NFE2L1] were 4.02 ± 0.98 and 3.96 ± 0.31.
On the same counts, the results for PLHHQTQRFRLDNLLNMAYGVKSP [ELAVL3] are 2.5 ± 0.34 and 2.63 ± 0.27.
For ALLEGEKALWEDKTSLWEEENALW [CCDC70], the protein stability index reads like this: (treatment: DMSO) 3.41 ± 0.27; (treatment: MLN4924 1 uM, 8 h) 3.73 ± 0.33.
ESFYESTSPECASPQFEGPLSPPP [NEUROD6]: the protein stability index reads like this: (treatment: DMSO) 4.92 ± 0.19; (treatment: MLN4924 1 uM, 8 h) 4.94 ± 0.22.
Taken in the same sequence, the figures for TQYVRHSSDPFYTPEPDTCHELLG [TPH1] were 3.63 ± 0.35 and 4 ± 0.32.
On the same counts, the results for LGSPQHSPSTRGSPNRSLPSPGVL [ATF4] are 4.45 ± 0.23 and 4.45 ± 0.22.
With KLMKNIRFPLMTPQELINYVQTVD [KLHL13], the protein stability index reads like this: (treatment: DMSO) 2.87 ± 0.18; (treatment: MLN4924 1 uM, 8 h) 2.82 ± 0.19.
On the same counts, the results for PENLLLASKCKGAAVKLADFGLAI [CAMK2B] are 2.33 ± 0.31 and 2.56 ± 0.44.
Taken in the same sequence, the figures for GSWGSFQLPGLLNFGEFKCSDSDK [CLCN6] were 3.99 ± 0.29 and 4.17 ± 0.57.
In the case of EELRKFSSLCYKQRIKSQERETEA [MOG], the protein stability index by setting is: (treatment: DMSO) 4.47 ± 0.28; (treatment: MLN4924 1 uM, 8 h) 4.22 ± 0.076.
On the same counts, the results for NIPGNSTLITAVELERFVNLHSLA [FBXO33] are 2.27 ± 0.24 and 2.23 ± 0.37.
Regarding PSVEQAADSLDFDETFLATSFLQH [FOXJ1], the protein stability index came to 4.43 ± 0.18 (treatment: DMSO) and 4.41 ± 0.4 (treatment: MLN4924 1 uM, 8 h).
In the case of GPGAHILRRKSPASGQGPMCNVKA [ADAMTS4], the protein stability index is, setting by setting: (treatment: DMSO) 4.05 ± 0.34; (treatment: MLN4924 1 uM, 8 h) 3.76 ± 0.36.
In the case of LRDDVLCARMLYNYGADTNTRNYE [ASB7], the protein stability index was found to be 3.1 ± 0.21 (treatment: DMSO) and 2.86 ± 0.14 (treatment: MLN4924 1 uM, 8 h).
On the same counts, the results for PAKAANRTPPKSPGDPSKDRAAKR [TPPP] are 5.22 ± 0.38 and 5.21 ± 0.32.
For the sequence VARVLRGCLENMPEADCIPKEQLS [PLK2], the protein stability index came out at 3.42 ± 0.26 (treatment: DMSO) and 3.62 ± 0.13 (treatment: MLN4924 1 uM, 8 h).
Turning to LPTDAVDCMSRELVSLTSRNPDQR [FBXO34], the protein stability index amounted to 4.85 ± 0.25 (treatment: DMSO) and 4.9 ± 0.17 (treatment: MLN4924 1 uM, 8 h).
ALDLAREFLPQGPVAMRVAKLAIN [AUH]: the protein stability index by setting is: (treatment: DMSO) 2.89 ± 0.18; (treatment: MLN4924 1 uM, 8 h) 2.83 ± 0.25.
In turn, PLGVDESLFSYGLRESIASYLSLT [SLA] had a protein stability index (treatment: DMSO) of 2.03 ± 0.19 and a protein stability index (treatment: MLN4924 1 uM, 8 h) of 2.3 ± 0.13.
Regarding ELACPAERSGHVAVSDGRHMFVWG [KLHDC2], the protein stability index is, setting by setting: (treatment: DMSO) 2.84 ± 0.15; (treatment: MLN4924 1 uM, 8 h) 2.92 ± 0.2.
On the same counts, the results for RYADLEAVNRARRPLARPIKRGDI [RHOBTB1] are 3.6 ± 0.4 and 3.83 ± 0.12.
As for HFGWYLGWGDCVWLPYLYTLQGLY [DHCR7], the protein stability index is, setting by setting: (treatment: DMSO) 3.09 ± 0.84; (treatment: MLN4924 1 uM, 8 h) 3.29 ± 0.11.
With LHTDVGSVRMRRAEKSVAPSNTGS [NEK8], the protein stability index came to 4.58 ± 0.22 (treatment: DMSO) and 4.73 ± 0.14 (treatment: MLN4924 1 uM, 8 h).
As to FIYDCDPFTRRYYKEKFGITDLPR [EFHC1], the protein stability index (treatment: DMSO) came to 2.35 ± 0.37 and the protein stability index (treatment: MLN4924 1 uM, 8 h) worked out at 2.15 ± 0.26.
Taken in the same sequence, the figures for PAPSPHEEPCSPGLLQDQGSGLSS [CBY2] were 5.31 ± 0.22 and 5.194 ± 0.04.
Consider GPALPNGPLLGTNGATDDSKTNLI [ELAVL3], for which the protein stability index by setting is: (treatment: DMSO) 4.99 ± 0.17; (treatment: MLN4924 1 uM, 8 h) 4.93 ± 0.33.
Taken in the same sequence, the figures for WIGLFLVATGSQQSLAQPLPGNTT were 2.93 ± 0.55 and 2.96 ± 0.35.
Taken in the same sequence, the figures for LLDFMCRIIPNFYPPLEGHVRQGV [INTS3] were 3.31 ± 0.42 and 2.84 ± 0.41.
On the same counts, the results for FPKINHGILYDEEKYKPFSQVPTG [CFHR2] are 2.4 ± 0.28 and 3.36 ± 0.34.
Regarding DVDITLSSEAFHNYMNAAMVHINR [RTN3], the protein stability index was 2.18 ± 0.087 (treatment: DMSO) and 2.32 ± 0.25 (treatment: MLN4924 1 uM, 8 h).
Taken in the same sequence, the figures for HFWQLFNALTLFNLAQDPQCKEWQ [TMEM120A] were 3.17 ± 0.61 and 3.72 ± 0.76.
In the case of LGVAVAVLGGFLYAVGGSDGTSPL [KLHL20], the protein stability index stood at 2.86 ± 0.64 (treatment: DMSO) and 2.85 ± 0.51 (treatment: MLN4924 1 uM, 8 h).
With SLGAVGEGFHNYHHSFPYDYSASE [SCD], the protein stability index (treatment: DMSO) worked out at 3.81 ± 0.24 and the protein stability index (treatment: MLN4924 1 uM, 8 h) was 3.88 ± 0.28.
Taken in the same sequence, the figures for VPGEFKQDVTVVGSAGRLLAVGTD [GFOD1] were 4.1 ± 0.29 and 3.69 ± 0.17.
Taken in the same sequence, the figures for DLQNLLGFTPEELHAILGVQPDTE [ETS2] were 3.25 ± 0.21 and 3.45 ± 0.29.
On the same counts, the results for VDNARIVLQIDNARLAADDFRVKY [KRT18] are 2.58 ± 0.31 and 2.77 ± 0.21.
Consider DNAVKNHWNSTIKRKVDTGGFLSE [MYBL2], for which the protein stability index (treatment: DMSO) is 3.87 ± 0.2 and the protein stability index (treatment: MLN4924 1 uM, 8 h) was 3.71 ± 0.14.
For TLVGCWSDVVGRRSSLLACILLSA [MFSD9], the protein stability index was determined as 2.84 ± 0.38 (treatment: DMSO) and 2.71 ± 0.4 (treatment: MLN4924 1 uM, 8 h).
Consider RNLHSHYHEAPMTRKHYQVTGYGI [POMT2], for which the protein stability index reads like this: (treatment: DMSO) 2.35 ± 0.15; (treatment: MLN4924 1 uM, 8 h) 2.46 ± 0.23.
With HFDATNLHKQTASDLLDEKEIAKN [FEM1C], the protein stability index runs as follows: (treatment: DMSO) 5.38 ± 0.15; (treatment: MLN4924 1 uM, 8 h) 5.31 ± 0.29.
On the same counts, the results for GDKSESPDEANVGKHPKDKTEDEN [TOR1AIP2] are 5.55 ± 0.2 and 5.44 ± 0.46.
On the same counts, the results for GFSPSYEFFAVTRFLVGMMNGGMS [SLC22A15] are 2.54 ± 1.2 and 2.28 ± 0.4.
For the sequence REALTRLQELCYQWLRPHVSTKEQ [ZSCAN9], the protein stability index (treatment: DMSO) is 1.99 ± 0.24 and the protein stability index (treatment: MLN4924 1 uM, 8 h) turned out to be 2.46 ± 0.32.
Taken in the same sequence, the figures for GHSQPDGAYSSASSFSRPLGYPYV [DLX1] were 3.35 ± 0.14 and 3.17 ± 0.29.
As for HFPASPFWSVMFFLMLINLGLGSM [SLC6A17], the protein stability index amounted to 3.67 ± 0.42 (treatment: DMSO) and 3.4 ± 0.25 (treatment: MLN4924 1 uM, 8 h).
For RLEALSTERDEIEDVKCQEDQKLQ [TRIM15], the protein stability index turned out to be 5.21 ± 0.32 (treatment: DMSO) and 5.66 ± 0.16 (treatment: MLN4924 1 uM, 8 h).
